Experiment in all cases: cell-based or functional assay
The target of one assay is T1, Caspase-10 (UniProt Q92851 220-521, limits assumed).
T1 sequence (looked up): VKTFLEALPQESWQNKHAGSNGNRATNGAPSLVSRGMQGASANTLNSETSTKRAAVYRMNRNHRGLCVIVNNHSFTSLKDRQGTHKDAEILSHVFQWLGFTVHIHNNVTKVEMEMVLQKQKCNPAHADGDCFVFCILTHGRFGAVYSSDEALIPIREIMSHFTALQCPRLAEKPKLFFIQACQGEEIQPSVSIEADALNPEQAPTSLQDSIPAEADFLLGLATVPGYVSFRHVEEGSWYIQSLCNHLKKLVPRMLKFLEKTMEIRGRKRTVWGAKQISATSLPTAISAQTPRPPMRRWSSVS

A further assay addresses Caspase-8 (UniProt Q14790 217-479).
Assay [1] concerns the target T2, Caspase-3 (UniProt P42574 29-277).
T2 sequence (looked up): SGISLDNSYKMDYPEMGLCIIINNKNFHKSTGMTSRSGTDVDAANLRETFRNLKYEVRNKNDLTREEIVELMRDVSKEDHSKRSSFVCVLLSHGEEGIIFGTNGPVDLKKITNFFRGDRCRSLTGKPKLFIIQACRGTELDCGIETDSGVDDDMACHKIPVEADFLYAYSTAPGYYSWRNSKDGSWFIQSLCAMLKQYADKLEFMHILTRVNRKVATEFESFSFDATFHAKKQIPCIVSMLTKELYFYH

Another assay deals with T3, Caspase-6 (UniProt P55212 24-293, limits assumed).
T3 sequence (looked up): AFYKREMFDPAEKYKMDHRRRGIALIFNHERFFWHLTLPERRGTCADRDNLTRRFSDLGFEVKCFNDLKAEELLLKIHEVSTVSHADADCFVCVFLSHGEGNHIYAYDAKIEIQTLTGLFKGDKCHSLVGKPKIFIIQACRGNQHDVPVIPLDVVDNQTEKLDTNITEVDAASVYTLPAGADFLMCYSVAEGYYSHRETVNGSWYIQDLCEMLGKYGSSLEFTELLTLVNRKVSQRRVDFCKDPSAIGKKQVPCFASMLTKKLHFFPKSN

The target of the next assay is T4, Caspase-2 (UniProt P42575 170-452, limits assumed).
T4 sequence (looked up): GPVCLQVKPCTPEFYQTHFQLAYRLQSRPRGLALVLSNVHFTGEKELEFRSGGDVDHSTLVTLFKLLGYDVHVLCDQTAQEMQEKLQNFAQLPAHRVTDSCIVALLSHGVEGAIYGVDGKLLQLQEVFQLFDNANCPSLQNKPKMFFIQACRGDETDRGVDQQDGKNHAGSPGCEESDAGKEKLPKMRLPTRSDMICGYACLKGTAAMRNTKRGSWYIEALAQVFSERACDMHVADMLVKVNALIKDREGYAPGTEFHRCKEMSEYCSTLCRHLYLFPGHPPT

For the next assay, the target named is T5, Caspase-7 (UniProt P55210 24-303).
T5 sequence (looked up): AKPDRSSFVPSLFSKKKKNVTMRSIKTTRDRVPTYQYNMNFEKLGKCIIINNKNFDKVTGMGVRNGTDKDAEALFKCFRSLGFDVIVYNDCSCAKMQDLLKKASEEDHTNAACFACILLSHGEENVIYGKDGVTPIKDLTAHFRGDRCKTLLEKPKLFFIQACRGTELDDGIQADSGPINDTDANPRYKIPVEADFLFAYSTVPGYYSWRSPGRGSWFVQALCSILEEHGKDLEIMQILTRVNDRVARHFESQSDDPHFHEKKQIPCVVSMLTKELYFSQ

Another assay deals with T6, Caspase-9 (UniProt P55211 1-416, limits assumed).
T6 sequence (looked up): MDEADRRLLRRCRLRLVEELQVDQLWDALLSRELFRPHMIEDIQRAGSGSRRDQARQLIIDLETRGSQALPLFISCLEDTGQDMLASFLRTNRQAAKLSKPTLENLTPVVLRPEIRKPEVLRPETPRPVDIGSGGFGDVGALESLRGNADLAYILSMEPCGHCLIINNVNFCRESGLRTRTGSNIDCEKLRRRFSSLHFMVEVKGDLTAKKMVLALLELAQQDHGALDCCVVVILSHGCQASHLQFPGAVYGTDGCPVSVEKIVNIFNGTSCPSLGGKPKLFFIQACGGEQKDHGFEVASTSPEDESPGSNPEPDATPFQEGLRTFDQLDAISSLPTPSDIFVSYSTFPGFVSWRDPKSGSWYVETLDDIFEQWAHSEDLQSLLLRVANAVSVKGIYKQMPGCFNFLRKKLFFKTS

Assay [2] concerns the target T2, Caspase-3. This is another data set of the same source.

Numbered stars: 1 amine (or outer) side, 2 acyl side, 3 side chain; on linkers, the order of the positions; unused ones are H or OH. Square brackets hold non-standard residues; d marks the D form. * marks the point of attachment. CH═CH‑CON(CH2Ph)2 = O=C(/C=C/*)N(Cc1ccccc1)Cc1ccccc1; CH═CH‑CON(CH3)CH2CH2Ph = CN(CCc1ccccc1)C(=O)/C=C/*; AAsp = aza-Asp, O=C(N(CC(=O)[*:3])N[*:1])[*:2]; CH═CH‑CON(CH3)CH2Ph = CN(Cc1ccccc1)C(=O)/C=C/*; Cbz = O=C(OCc1ccccc1)*

Chain of Caspase-8 (Q14790 217-479 limits assumed): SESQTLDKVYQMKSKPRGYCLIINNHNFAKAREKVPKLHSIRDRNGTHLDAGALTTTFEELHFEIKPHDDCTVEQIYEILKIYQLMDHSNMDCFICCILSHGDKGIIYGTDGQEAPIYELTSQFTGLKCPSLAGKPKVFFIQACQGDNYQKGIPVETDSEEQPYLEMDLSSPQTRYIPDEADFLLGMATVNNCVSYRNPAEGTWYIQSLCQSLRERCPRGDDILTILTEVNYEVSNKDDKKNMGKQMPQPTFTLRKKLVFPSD

B1: Cbz-Leu-Glu-Thr-AAsp-CH═CH-CON(CH2Ph)2 (peptide)
peptide: Cbz-LET[AAsp]-{CH═CH‑CON(CH2Ph)2}
SMILES: CC(C)C[C@H](NC(=O)OCc1ccccc1)C(=O)N[C@@H](CCC(=O)O)C(=O)N[C@H](C(=O)NN(CC(=O)O)C(=O)/C=C/C(=O)N(Cc1ccccc1)Cc1ccccc1)[C@@H](C)O
Take B1: the k2 stood at 8080 M⁻¹ s⁻¹ with Caspase-10; 129000 M⁻¹ s⁻¹ with Caspase-8; 8630 M⁻¹ s⁻¹ with Caspase-3 [1]; 14100 M⁻¹ s⁻¹ with Caspase-6; 110 M⁻¹ s⁻¹ with Caspase-2; 760 M⁻¹ s⁻¹ with Caspase-7. In the assay with Caspase-9, the k2 is 1100 M⁻¹ s⁻¹.

B2: Cbz-Asp-Glu-Val-AAsp-CH═CH-CON(CH2Ph)2 (peptide)
peptide: Cbz-DEV[AAsp]-{CH═CH‑CON(CH2Ph)2}
SMILES: CC(C)[C@H](NC(=O)[C@H](CCC(=O)O)NC(=O)[C@H](CC(=O)O)NC(=O)OCc1ccccc1)C(=O)NN(CC(=O)O)C(=O)/C=C/C(=O)N(Cc1ccccc1)Cc1ccccc1
Take B2: the k2 with Caspase-10 came to 6300 M⁻¹ s⁻¹; with Caspase-8, 8600 M⁻¹ s⁻¹; in the assay with Caspase-3 [1], 3e+06 M⁻¹ s⁻¹; with Caspase-6 it was 5100 M⁻¹ s⁻¹; in the assay with Caspase-2, 110 M⁻¹ s⁻¹; in the assay with Caspase-7, 359000 M⁻¹ s⁻¹. For the same molecule, in the assay with Caspase-9, the k2 was determined as 450 M⁻¹ s⁻¹. For the same molecule, the “fold more potent inhibition than of caspase-6” value with Caspase-3 [2] worked out at 588 fold. Also, the “fold more potent inhibition than of caspase-8” value with Caspase-3 [2] came out at 348 fold.
As to Cbz-LET[AAsp]-{CH═CH‑CON(CH3)CH2‑1‑Napth} [Cbz-Leu-Glu-Thr-AAsp-CH═CH-CON(CH3)CH2-1-Napth], the k2 was 13600 M⁻¹ s⁻¹ with Caspase-10; 179000 M⁻¹ s⁻¹ in the assay with Caspase-8; 11200 M⁻¹ s⁻¹ in the assay with Caspase-3 [1]; 21700 M⁻¹ s⁻¹ in the assay with Caspase-6; 290 M⁻¹ s⁻¹ in the assay with Caspase-2; 1100 M⁻¹ s⁻¹ in the assay with Caspase-7. Also, the k2 with Caspase-9 was 5030 M⁻¹ s⁻¹.
With Cbz-DEV[AAsp]-{CH═CH‑CONHCH2CH2Ph} [Cbz-Asp-Glu-Val-AAsp-CH═CH-CONHCH2CH2Ph], the k2 with Caspase-10 is 31400 M⁻¹ s⁻¹; in the assay with Caspase-8, 129000 M⁻¹ s⁻¹; in the assay with Caspase-3 [1] it was 1.95e+06 M⁻¹ s⁻¹; with Caspase-6, 3470 M⁻¹ s⁻¹; in the assay with Caspase-2, 120 M⁻¹ s⁻¹; with Caspase-7 it was 267000 M⁻¹ s⁻¹. For the same molecule, the k2 with Caspase-9 was found to be 655 M⁻¹ s⁻¹.

B3: Cbz-Leu-Glu-Thr-AAsp-CH═CH-CON(CH3)CH2CH2Ph (peptide)
peptide: Cbz-LET[AAsp]-{CH═CH‑CON(CH3)CH2CH2Ph}
SMILES: CC(C)C[C@H](NC(=O)OCc1ccccc1)C(=O)N[C@@H](CCC(=O)O)C(=O)N[C@H](C(=O)NN(CC(=O)O)C(=O)/C=C/C(=O)N(C)CCc1ccccc1)[C@@H](C)O
Consider B3, for which the k2 with Caspase-10 was 6190 M⁻¹ s⁻¹; in the assay with Caspase-8, 65300 M⁻¹ s⁻¹; with Caspase-3 [1], 2620 M⁻¹ s⁻¹; with Caspase-6, 2550 M⁻¹ s⁻¹; with Caspase-2, 50 M⁻¹ s⁻¹; with Caspase-7, 290 M⁻¹ s⁻¹. Moreover, the k2 with Caspase-9 is 960 M⁻¹ s⁻¹.

B4: Cbz-Leu-Glu-Thr-AAsp-CH═CH-CON(CH3)CH2Ph (peptide)
peptide: Cbz-LET[AAsp]-{CH═CH‑CON(CH3)CH2Ph}
SMILES: CC(C)C[C@H](NC(=O)OCc1ccccc1)C(=O)N[C@@H](CCC(=O)O)C(=O)N[C@H](C(=O)NN(CC(=O)O)C(=O)/C=C/C(=O)N(C)Cc1ccccc1)[C@@H](C)O
On to B4, for which the k2 with Caspase-10 came to 8430 M⁻¹ s⁻¹; with Caspase-8 it was 169000 M⁻¹ s⁻¹; in the assay with Caspase-3 [1], 6000 M⁻¹ s⁻¹; with Caspase-6 it was 10800 M⁻¹ s⁻¹; in the assay with Caspase-2, 140 M⁻¹ s⁻¹; in the assay with Caspase-7, 520 M⁻¹ s⁻¹. This molecule also had a k2 in the assay with Caspase-9 of 4320 M⁻¹ s⁻¹.
With Cbz-LET[AAsp]-{CH═CH‑CO‑tetrahydroquinoline} [Cbz-Leu-Glu-Thr-AAsp-CH═CH-CON-tetrahydroquinoline], the k2 with Caspase-10 amounted to 9000 M⁻¹ s⁻¹; with Caspase-8, 216000 M⁻¹ s⁻¹; with Caspase-3 [1], 12100 M⁻¹ s⁻¹; with Caspase-6 it was 13000 M⁻¹ s⁻¹; in the assay with Caspase-2 it was 92 M⁻¹ s⁻¹; with Caspase-7 it was 540 M⁻¹ s⁻¹. Further, the k2 in the assay with Caspase-9 was 1660 M⁻¹ s⁻¹.

The values above are taken from patent US20050256058A1 (GEORGIA TECH RESEARCH, published 2005).
